From article PMC4552487 (2015)

T1: Parkin (80-465)-Biotin, wild type (UniProt O60260 80-465, biotin (position not given))
T1 chain: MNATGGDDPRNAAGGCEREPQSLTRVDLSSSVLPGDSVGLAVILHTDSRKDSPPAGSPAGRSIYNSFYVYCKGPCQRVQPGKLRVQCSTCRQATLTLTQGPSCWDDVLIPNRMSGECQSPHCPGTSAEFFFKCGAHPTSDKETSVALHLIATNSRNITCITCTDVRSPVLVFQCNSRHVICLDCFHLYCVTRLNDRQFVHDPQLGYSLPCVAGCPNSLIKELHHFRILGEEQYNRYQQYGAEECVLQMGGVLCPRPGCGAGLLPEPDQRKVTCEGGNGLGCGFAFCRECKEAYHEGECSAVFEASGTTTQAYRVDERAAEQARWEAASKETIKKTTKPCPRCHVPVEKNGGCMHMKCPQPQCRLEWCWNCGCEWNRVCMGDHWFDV

B1: Ubl (protein)
chain: MIVFVRFNSSHGFPVEVDSDTSIFQLKEVVAKRQGVPADQLRVIFAGKELRNDWTVQNCDLDQQSIVHIVQRPWRK
B2: Ser65-phosphorylated Parkin Ubl domain (residues 1-76) (Ubl^Phospho-Ser65) (domain or fragment)
chain: MIVFVRFNSSHGFPVEVDSDTSIFQLKEVVAKRQGVPADQLRVIFAGKELRNDWTVQNCDLDQQSIVHIVQRPWRK
modifications: phosphoserine at 65

Molecular target: T1, Parkin (80-465)-Biotin, wild type
Experiment: competition with GST-Ubl (AlphaScreen)

Binder | IC50
B1 | 134 nM
B2 | > 2530 nM
